Assay results taken from PMC4297941 (Redox Biology, 2014).
Numbering of substitutions follows the chain as printed. Names and notes keep the numbering of the source.

Columns and labels:
[1] = molecular target: T1, wild type human endothelial nitric oxide synthase (eNOS), histidine tagged, recombinant (human), P29474; experiment: SEC; details: remark: other sources report otherwise
T1 chain: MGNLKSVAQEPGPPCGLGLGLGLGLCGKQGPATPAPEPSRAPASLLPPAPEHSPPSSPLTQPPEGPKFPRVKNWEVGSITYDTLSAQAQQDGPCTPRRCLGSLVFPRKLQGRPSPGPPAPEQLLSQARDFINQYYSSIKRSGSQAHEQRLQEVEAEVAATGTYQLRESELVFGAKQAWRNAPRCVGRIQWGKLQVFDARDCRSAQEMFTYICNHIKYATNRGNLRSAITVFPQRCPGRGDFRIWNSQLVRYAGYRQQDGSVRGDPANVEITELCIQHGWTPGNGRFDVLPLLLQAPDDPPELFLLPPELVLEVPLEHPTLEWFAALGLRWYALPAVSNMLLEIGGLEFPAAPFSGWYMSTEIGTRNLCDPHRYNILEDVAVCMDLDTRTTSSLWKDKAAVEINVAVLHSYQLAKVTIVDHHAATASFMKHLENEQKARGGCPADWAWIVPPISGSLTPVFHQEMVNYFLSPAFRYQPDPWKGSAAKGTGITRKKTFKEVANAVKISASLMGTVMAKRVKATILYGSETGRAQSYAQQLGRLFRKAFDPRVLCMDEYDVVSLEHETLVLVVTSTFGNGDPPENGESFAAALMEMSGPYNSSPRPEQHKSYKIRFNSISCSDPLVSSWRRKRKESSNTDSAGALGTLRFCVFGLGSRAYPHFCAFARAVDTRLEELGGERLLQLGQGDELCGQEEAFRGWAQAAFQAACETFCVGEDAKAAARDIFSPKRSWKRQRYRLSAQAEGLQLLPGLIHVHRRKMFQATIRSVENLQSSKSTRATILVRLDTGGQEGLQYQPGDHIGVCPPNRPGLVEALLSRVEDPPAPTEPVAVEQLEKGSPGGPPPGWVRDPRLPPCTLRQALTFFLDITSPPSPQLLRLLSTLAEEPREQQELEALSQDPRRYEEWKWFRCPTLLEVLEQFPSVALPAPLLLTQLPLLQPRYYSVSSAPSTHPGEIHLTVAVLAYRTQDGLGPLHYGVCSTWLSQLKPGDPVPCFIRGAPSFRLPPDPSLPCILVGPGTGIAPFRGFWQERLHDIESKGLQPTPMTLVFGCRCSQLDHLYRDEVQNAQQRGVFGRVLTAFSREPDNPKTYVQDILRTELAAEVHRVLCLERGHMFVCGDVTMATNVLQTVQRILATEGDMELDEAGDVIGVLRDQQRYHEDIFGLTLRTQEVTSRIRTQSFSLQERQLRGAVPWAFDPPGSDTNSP

[2] = molecular target: the molecule itself; experiment: SEC

B1: wild type human endothelial nitric oxide synthase (eNOS), histidine tagged, recombinant, P29474 1-1203 (enzyme)
chain: T1 chain
- stoichiometry N [1]: 2

B2: C94R/C99R eNOS mutant, histidine tagged, recombinant (enzyme, human, UniProt P29474 1-1203, looked up)
chain: T1 chain with C94R, C99R
- stoichiometry N [2]: 2
